Experimental data reported in patent publication US9938505B2, “Polypeptide composition and culture method for pluripotent stem cell using same” (FUJIFILM Corporation, priority 2013, dated 2018).

Columns and labels:
iPS cells [1] = assay: Growth evaluation, growth curves over 8 days; format: cell-based, human; details: FIG. 2
Description: The iPS cells collected in the same manner as in <Cell adhesiveness evaluation 1> were seeded into a 96-well plate, onto which RCP-1, RCP-11, and natural human vitronectin were adsorbed, at a ratio of 250 cells/well and cultured for 8 days in a 5% CO2 incubator at 37° C. The number of adhesive cells after different days of culture was measured in the same manner as in <Cell adhesiveness evaluation 1>, thereby obtaining growth curves. […] In FIG. 2, a black rhombus indicates a case using RCP-1, and a black square indicates a case using RCP-11.
From the increase and decrease in the obtained number of cells, the doubling time was calculated. As a result, it was confirmed that it takes 46.4±2.1 hours for the number of cells to be doubled in a case where RCP-1 is used, and 67.7±2.1 hours in a case where RCP-11 is used.

iPS cells [2] = assay: Evaluation of maintenance of undifferentiated state (colony form, NANOG staining); format: cell-based, human; details: FIGS. 4A to 4E; after culture for 1 month
Description: iPS cells collected in the same manner as in <Cell adhesiveness evaluation 1> were suspended in TeSR2. The iPS cells were seeded into 6-well plate (Tissue culture-treated, Falcon), onto which each of the samples 1, 2, 5, 6, and 7 used in <Cell adhesiveness evaluation 1> was adsorbed in the same manner as in <Cell adhesiveness evaluation 1>, and cultured in a CO2 incubator at 37° C. Except for the day after the seeding, the medium was replaced every day. In the same method as described above, the cells were subcultured every six days. FIGS. 3A to 3E show forms of the iPS cells cultured on each of the samples.
After being cultured for 1 month under the conditions described above, the cells were immobilized using 4% paraformaldehyde and treated with 1% Triton-X/PBS so as to enhance the membrane permeability. After the cells were subjected to a blocking treatment using an IMAGE IT SIGNAL ENHANCER (trade name, Invitrogen), an anti-human NANOG antibody (AF 1997, R&D Systems, Inc.), an ALEXA FLUOR 555 binding rabbit anti-goat IgG antibody (Invitrogen), and DAPI (Dojindo Molecular Technologies, Inc.) were added thereto for labeling, and the cells were imaged using a fluorescence microscope. FIGS. 4A to 4E show the fluorescence microscopic images.
FIGS. 3A and 4A show the iPS cells cultured on RCP-1; FIGS. 3B and 4B show the iPS cells cultured on RCP-11; FIGS. 3C and 4C show the iPS cells cultured on natural human vitronectin; FIGS. 3D and 4D show the iPS cells cultured on rLaminin-5; and FIGS. 3E and 4E show the iPS cells cultured on rLaminin-511. The scale bar in the images indicates […]. In FIGS. 3A to 3E, the images on the left side are full images of the colony, and the images on the right side are magnified images. In FIGS. 4A to 4E, the images on the left side are images of the cells stained with DAPI, and the images on the right side are images of the cells stained with an anti-NANOG antibody. The scale bar in FIGS. 3A to 4E indicates 200 μm.

[3] = Aggregation after dialysis (removal of urea); format: physicochemical; details: after stepwise dialysis against PBS, 1.5 M NaCl, 0.5 M L-arginine, 1 mM EDTA, pH 7.4
Description: For RCP-1 to RCP-10 and RCP-17, each of the purified polypeptide solutions was dialyzed using SLIDE-A-LIZER (trade name, 3.5 K MWCO.). Basically, by using a dialysis buffer (PBS, 1.5 M NaCl, 0.5 M L-arginine, 1 mM EDTA, pH 7.4) as an outer dialysate, urea was removed by stepwise dialysis. The concentration of the end-product of dialysis was calculated from the absorbence at 280 nm by using NANODROP (trade name, Thermo Fisher Scientific Inc.).
Furthermore, the indices of hydrophobicity determined for each of the amino acids were summed up, the obtained value was divided by the number of the amino acids, and the outcome was determined as the GRAVY value (see Kyte J., Doolittle R. F. (1982), J. Mol. Biol, 157: 105-132). The GRAVY value is an index of the hydrophilicity and hydrophobicity of a polypeptide calculated from the degree of hydrophobicity of the amino acids contained in each polypeptide. The greater the GRAVY value, the more the polypeptide is hydrophobic, and the smaller the GRAVY value, the more the polypeptide is hydrophilic. The results are shown in Table 4. • Whether or not aggregation was occurred was evaluated based on the scale of G, A, and B as shown below. The results are summarized in Table 4. • G: The formation of an aggregate was not observed. • A: The formation of particles having a particle size of about 100 nm was observed. • B: The formation of an aggregation of particles having a particle size of equal to or greater than 1 mm was visually observed.

iPS cells [4] = assay: Cell adhesiveness evaluation 3 (RCP-1 at 125 to 1,000 pmol/cm^2); format: cell-based, human; details: amount added equal to or greater than 125 pmol/cm^2
Description: The cell adhesiveness was evaluated in the same manner as in <Cell adhesiveness evaluation 1>, except that RCP-1 was used after the concentration thereof was adjusted to 125 pmol/cm^2 to 1,000 pmol/cm^2 by using PBS. In Table 9, the cell adhesion rate is expressed as relative value calculated by regarding a cell adhesion rate with respect to the culture vessel, onto which natural vitronectin is adsorbed at a concentration of 130 pmol/cm^2, as being 100. N=3.

Molecule | number of cells on Day 8 of culture, as fraction of the case where RCP-1 was used (iPS cells [1]) | NANOG expression / maintenance of undifferentiated state (iPS cells [2]) | Aggregation [3] | cell growth properties (in words) (iPS cells [1]) | adhesiveness of iPS cells (in words) (iPS cells [4])
RCP-11: recombinant polypeptide SEQ ID NO: 24; positions 1-459, corresponds to the sequence of natural human vitronectin, GPLG on N-terminal (protein, GPLG N-terminal extension; Synthetic peptide RCP-11) GPLGDQESCKGRCTEGFNVDKKCQCDELCSYYQSCCTDYTAECKPQVTRGDVFTMPEDEYTVYDDGEEKNNATVHEQVGGPSLTSDLQAQSKGNPEQTPVLKPEEEAPAPEVGASKPEGIDSRPETLHPGRPQPPAEEELCSGKPFDAFTDLKNGSLFAFRGQYCYELDEKAVRPGYPKLIRDVWGIEGPIDAAFTRINCQGKTYLFKGSQYWRFEDGVLDPDYPRNISDGFDGIPDNVDAALALPAHSYSGRERVYFFKGKQYWEYQFQHQPSQEECEGSSLSAVFEHFAMMQRDSWEDIFELLFWGRTSAGTRQPQFISRDWHGVPGQVDAAMAGRIYISGMAPRPSLAKKQRFRHRNRKGYRSQRGHSRGRNQNSRRPSRATWLSLFSSEESNLGANNYDDYRMDWLVPATCEPIQSVFFFSGDKYYRVNLRTRRVDTVDPPYPRSIAQYWLGCPAPGHL | about ⅓ | strongly expressed NANOG in the entirety of the colony |  |  | 
RCP-1: recombinant polypeptide SEQ ID NO: 14; human vitronectin positions 1-55, 269-459, methionine on N-terminal (protein, Synthetic peptide RCP-1) MDQESCKGRCTEGFNVDKKCQCDELCSYYQSCCTDYTAECKPQVTRGDVFTMPEDEPSQEECEGSSLSAVFEHFAMMQRDSWEDIFELLFWGRTSAGTRQPQFISRDWHGVPGQVDAAMAGRIYISGMAPRPSLAKKQRFRHRNRKGYRSQRGHSRGRNQNSRRPSRATWLSLFSSEESNLGANNYDDYRMDWLVPATCEPIQSVFFFSGDKYYRVNLRTRRVDTVDPPYPRSIAQYWLGCPAPGHL |  | strongly expressed NANOG in the entirety of the colony | A (The formation of particles having a particle size of about 100 nm was observed.) | higher cell growth properties compared to RCP-11 | equivalent to the cell adhesion rate of the natural vitronection
